This assay has as its target T1, human NGF (human, UniProt P01138 122-241, limits assumed).
T1 construct: also called hNGF; human nerve growth factor
In words: binding affinity, method not stated.

Several values for one entry are separate records, joined by “and”; a condition that tells them apart may be missing. Identical values can stand only once.

T1 sequence (P01138 122-241 limits assumed): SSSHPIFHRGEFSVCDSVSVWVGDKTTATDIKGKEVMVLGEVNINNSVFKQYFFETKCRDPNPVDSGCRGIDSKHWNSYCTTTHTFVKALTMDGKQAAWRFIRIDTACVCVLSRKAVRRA

B1: humanized anti-NGF antibody E3 (antibody, V domains shown)
VH: QVQLQESGPGLVKPSETLSLTCTVSGFSLIGYDLNWIRQPPGKGLEWIGIIWGDGTTDYNSAVKSRVTISKDTSKNQFSLKLSSVTAADTAVYYCARGGYWYATSYYFDYWGQGTLVTVS
VL: DIQMTQSPSSLSASVGDRVTITCRASQSISNNLNWYQQKPGKAPKLLIYYTSRFHSGVPSRFSGSGSGTDFTFTISSLQPEDIATYYCQQEHTLPYTFGQGTKLEIK
For B1, the equilibrium dissociation constant (Kd) was ~0.07 nM and ~0.1 nM.

For orientation: Kd means a measure of binding affinity in units of concentration. Read a low Kd as higher affinity.
